# Measured values: publication PMC7939381, “MMP activation–associated aminopeptidase N reveals a bivalent 14-3-3 binding motif” (The Journal of Biological Chemistry, 2020)
# Primed or numbered codes have the meaning given here. Where no end group is shown, it is not given here. [ ]: non-standard residue; d: D form. The star is where a group is joined. FITC = O=C1OC2(c3ccc(O)cc3Oc3cc(O)ccc32)c2ccc(NC(=S)*)cc21; pT = C[C@@H](OP(=O)(O)O)[C@H](N)C(=O)O; pS = N[C@@H](COP(=O)(O)O)C(=O)O; PEG2″ = not defined here
# T1: 14-3-3β/α, full length, N-terminally His6-tagged (human, UniProt P31946 1-246)
# T1 construct: 14-3-3 beta/alpha, human, full length; also called His6-14-3-3β/α; source: E. coli BL21(DE3), purified (HisTrap, SEC); also in E. coli cell lysate (pulldown); not shown: His6, N-terminal, kept
# T1 sequence (looked up): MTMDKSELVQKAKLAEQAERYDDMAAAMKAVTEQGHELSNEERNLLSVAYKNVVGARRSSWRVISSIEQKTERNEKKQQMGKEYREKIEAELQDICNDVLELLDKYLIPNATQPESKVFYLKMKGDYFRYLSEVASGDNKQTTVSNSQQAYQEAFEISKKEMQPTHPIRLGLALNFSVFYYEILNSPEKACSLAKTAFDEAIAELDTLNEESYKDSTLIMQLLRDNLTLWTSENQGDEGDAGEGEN
# T2: 14-3-3σ, full length, N-terminally His6-tagged (human, UniProt P31947 1-248)
# T2 construct: 14-3-3 sigma (stratifin), human, full length; no tag cleavage is described for the full-length proteins; also called stratifin; SFN; source: E. coli BL21(DE3), purified (HisTrap, SEC)
# T2 sequence (looked up): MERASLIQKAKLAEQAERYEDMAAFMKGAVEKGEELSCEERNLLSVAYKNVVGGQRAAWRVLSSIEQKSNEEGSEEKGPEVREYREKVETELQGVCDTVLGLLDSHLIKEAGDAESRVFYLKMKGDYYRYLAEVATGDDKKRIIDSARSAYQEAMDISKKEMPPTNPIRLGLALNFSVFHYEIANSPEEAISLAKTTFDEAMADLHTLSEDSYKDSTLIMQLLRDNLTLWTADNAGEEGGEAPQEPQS
# T3: 14-3-3ε, full length, N-terminally His6-tagged (human, UniProt P62258 1-255)
# T3 construct: 14-3-3 epsilon, human, full length; source: E. coli BL21(DE3), purified (HisTrap, SEC)
# T3 sequence (looked up): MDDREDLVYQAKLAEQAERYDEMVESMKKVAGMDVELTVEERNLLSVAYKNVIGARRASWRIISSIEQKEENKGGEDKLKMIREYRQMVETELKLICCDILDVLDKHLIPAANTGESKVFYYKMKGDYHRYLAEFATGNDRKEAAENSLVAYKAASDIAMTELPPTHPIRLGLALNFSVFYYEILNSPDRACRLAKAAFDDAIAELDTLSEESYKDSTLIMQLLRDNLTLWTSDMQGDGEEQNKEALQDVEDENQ
# T4: 14-3-3γ, full length, N-terminally His6-tagged (human, UniProt P61981 1-247)
# T4 construct: 14-3-3 gamma, human, full length; source: E. coli BL21(DE3), purified (HisTrap, SEC)
# T4 sequence (looked up): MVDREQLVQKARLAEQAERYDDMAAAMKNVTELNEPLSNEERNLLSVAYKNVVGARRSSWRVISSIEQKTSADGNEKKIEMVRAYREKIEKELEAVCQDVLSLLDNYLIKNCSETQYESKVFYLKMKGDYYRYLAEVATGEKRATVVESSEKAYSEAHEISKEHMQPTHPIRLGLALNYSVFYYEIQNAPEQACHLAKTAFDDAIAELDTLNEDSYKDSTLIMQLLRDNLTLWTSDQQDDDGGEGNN
# T5: 14-3-3θ, full length, N-terminally His6-tagged (human, UniProt P27348 1-245)
# T5 construct: 14-3-3 theta (printed as τ in the introduction, θ in the results), human, full length; also called 14-3-3τ; source: E. coli BL21(DE3), purified (HisTrap, SEC)
# T5 sequence (looked up): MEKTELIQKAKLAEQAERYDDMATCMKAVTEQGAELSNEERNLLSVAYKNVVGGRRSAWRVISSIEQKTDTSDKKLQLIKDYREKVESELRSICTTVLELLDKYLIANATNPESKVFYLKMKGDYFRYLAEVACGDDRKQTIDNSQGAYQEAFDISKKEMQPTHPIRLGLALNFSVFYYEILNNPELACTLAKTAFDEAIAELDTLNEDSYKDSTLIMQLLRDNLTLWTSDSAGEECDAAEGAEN
# T6: 14-3-3ζ, full length, N-terminally His6-tagged (human, UniProt P63104 1-245)
# T6 construct: 14-3-3 zeta, human, full length; source: E. coli BL21(DE3), purified (HisTrap, SEC)
# T6 sequence (looked up): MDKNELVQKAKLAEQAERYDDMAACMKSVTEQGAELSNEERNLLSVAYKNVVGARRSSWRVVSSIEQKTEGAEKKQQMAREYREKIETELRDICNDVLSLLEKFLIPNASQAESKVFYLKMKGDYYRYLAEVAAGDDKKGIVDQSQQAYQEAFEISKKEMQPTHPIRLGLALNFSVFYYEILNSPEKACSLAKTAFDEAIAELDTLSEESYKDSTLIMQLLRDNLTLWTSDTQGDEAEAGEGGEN
# B1: peptide 1, APN 38–46 pSer43, as used in ITC (peptide)
# peptide: NKNAN[pS]SPV
# notes: aminopeptidase N (APN, CD13), human, residues 38-46; source: synthetic peptide (Fmoc SPPS, HPLC purified)
# B2: 14-3-3η, full length, N-terminally His6-tagged (natural protein, human, UniProt Q04917 1-246, looked up)
# chain: MGDREQLLQRARLAEQAERYDDMASAMKAVTELNEPLSNEDRNLLSVAYKNVVGARRSSWRVISSIEQKTMADGNEKKLEKVKAYREKIEKELETVCNDVLSLLDKFLIKNCNDFQYESKVFYLKMKGDYYRYLAEVASGEKKNSVVEASEAAYKEAFEISKEQMQPTHPIRLGLALNFSVFYYEIQNAPEQACLLAKQAFDDAIAELDTLNEDSYKDSTLIMQLLRDNLTLWTSDQQDEEAGEGN
# notes: 14-3-3 eta, human, full length; also called His6-14-3-3η; source: E. coli BL21(DE3), purified (HisTrap, SEC); also in E. coli cell lysate (pulldown); not shown: His6, N-terminal, kept
# B3: 14-3-3σ ΔC (aa 1–231) (domain or fragment, human, UniProt P31947 1-231, looked up)
# chain: MERASLIQKAKLAEQAERYEDMAAFMKGAVEKGEELSCEERNLLSVAYKNVVGGQRAAWRVLSSIEQKSNEEGSEEKGPEVREYREKVETELQGVCDTVLGLLDSHLIKEAGDAESRVFYLKMKGDYYRYLAEVATGDDKKRIIDSARSAYQEAMDISKKEMPPTNPIRLGLALNFSVFHYEIANSPEEAISLAKTTFDEAMADLHTLSEDSYKDSTLIMQLLRDNLTLWT
# notes: 14-3-3 sigma (stratifin), human, C-terminally truncated, residues 1-231; One monomer per asymmetric unit; the biological dimer is generated by crystallographic symmetry; also called 14-3-3 ΔC aa 1–231; source: E. coli BL21(DE3), purified (HisTrap, TEV cleavage, reverse HisTrap, SEC); not shown: His6, N-terminal, cleaved
# Assays:
# [1] = molecular target: T1, 14-3-3β/α, full length, N-terminally …; assay: fluorescence polarisation; direct binding: dilution series of 14-3-3 protein added to FITC-labeled peptide (30 nM stock, 5 µl in 15 µl); 10 mM HEPES pH 7.4, 150 mM NaCl, 2 mM DTT, 0.01% Tween 20; 60 min at room temperature, read at 25 °C; four-parameter fit; settings: both partners purified
# [2] = molecular target: B2; assay: as above; settings: both partners purified
# [3] = molecular target: T2, 14-3-3σ, full length, N-terminally …; assay: as above; settings: both partners purified
# [4] = molecular target: T3, 14-3-3ε, full length, N-terminally …; assay: as above; settings: both partners purified
# [5] = molecular target: T4, 14-3-3γ, full length, N-terminally …; assay: as above; settings: both partners purified
# [6] = molecular target: T5, 14-3-3θ, full length, N-terminally …; assay: as above; settings: both partners purified
# [7] = molecular target: T6, 14-3-3ζ, full length, N-terminally …; assay: as above; settings: both partners purified
# 14-3-3σ ΔC (aa 1–231) = molecular target: B3; assay: crystal structure; 14-3-3σ ΔC co-crystallised with peptide 11; sitting drops, 100 mM HEPES pH 7.7, 0.19 M CaCl2, 5% glycerol, 27% PEG400; space group C222(1), 1.20 Å; also solved in P1; settings: both partners purified
# [8] = molecular target: B2; assay: ITC; 14-3-3η (500 µM; 250 µM for peptide 11) titrated into peptide (50 µM; 12.5 µM for peptide 11), 18 injections; 50 mM HEPES pH 7.4, 250 mM NaCl, 20 mM MgCl2; 25 °C; settings: both partners purified
# [9] = molecular target: B1; assay: as above; settings: both partners purified
# [10] = molecular target: T2, 14-3-3σ, full length, N-terminally …; assay: fluorescence polarisation; competition: dilution series of acetylated peptide (starting concentration 4000 µM) added to a premixed complex of 14-3-3σ (3 µM) and FITC-labeled RAF1 tracer (30 nM); 10 mM HEPES pH 7.4, 150 mM NaCl, 2 mM DTT, 0.01% Tween 20; 25 °C; settings: both partners purified
# [11] = molecular target: the molecule itself; assay: crystal structure; 14-3-3σ ΔC (12.5 g/l) mixed 1:2 with peptide 1; sitting drops, 100 mM HEPES pH 7.3, 0.19 M CaCl2, 5% glycerol, 28% PEG400, 4 °C; space group C222(1), 1.60 Å
binder,measurement,setting,value
"TTNPASATT (also: one phosphorylated Ser/Thr within Ser61–Thr64) [peptide 14, monophosphorylated APN 9-mer (noncanonical site of peptide 10)]",Kd,[1],> 40 µM
same,Kd,[2],> 40 µM
"{FITC-PEG2″}-NKNAN[pS]SPV (aminopeptidase N (APN, CD13), human, residues 38-46; also called site 1; source: synthetic peptide (Fmoc SPPS, HPLC purified)) [FITC-labeled peptide 1, APN 38–46 pSer43]",Kd,[3],1.7 ± 0.1 µM
same,binding result,[4],binds
same,binding result,[5],binds
same,binding result,[6],binds
same,binding result,[7],binds
same,Kd,[2],0.32 ± 0.04 µM
"NPASA[pT]TLD [peptide 15, monophosphorylated APN 9-mer pThr63 (site 2)]",Kd,[1],> 40 µM
same,Kd,[2],> 40 µM
"EKNKNAN[pS]SPVASTTPSASATTNPASA[pT]TLDQSKAWNR (peptide, UniProt P15144 36-73, looked up, aminopeptidase N (APN, CD13), human, residues 36-73; also called bis-phosphorylated peptide 11; source: synthetic peptide (Fmoc SPPS, HPLC purified)) [peptide 11, APN 36–73 pSer43 pThr63, as used in ITC and co-crystallisation]",binding result,14-3-3σ ΔC (aa 1–231),binds
B1,Kd,[8],2.18 µM
B2,stoichiometry N,[9],1.05
"Ac-RQRST[pS]TPN (source: synthetic peptide (Fmoc SPPS, HPLC purified)) [acetylated (unlabeled) RAF1 peptide]",IC50,[10],13.4 ± 0.7 µM
"PASATTLDQ (also: one phosphorylated Ser/Thr within Ser61–Thr64) [peptide 16, monophosphorylated APN 9-mer (noncanonical site of peptide 12)]",Kd,[1],> 40 µM
same,Kd,[2],> 40 µM
B3,binding result,[11],binds
"Ac-NKNAN[pS]SPV (aminopeptidase N (APN, CD13), human, residues 38-46; also called acetylated peptide 1; label-free peptide 1; source: synthetic peptide (Fmoc SPPS, HPLC purified)) [acetylated (label-free, unlabeled) peptide 1, APN 38–46 pSer43]",IC50,[10],18.8 ± 1.5 µM
